Test results reported in paper PMC3190825.

Assays:
Experiment in all cases: SPR
[1] = molecular target: Recombinant B6N fragment of protein β (single copy) (group B Streptococcus)
[2] = molecular target: IgABR tandem construct of protein β (group B Streptococcus)
[3] = molecular target: B6N tandem construct of protein β (group B Streptococcus)

## Recombinant hSiglec-5-Fc chimera (from UniProt O15389 17-441) (Fc fusion)
[1]
  Kd: 14 nM

## Purified human IgA (natural protein)
[2]
  Kd: 61 nM

B1: Recombinant hSiglec-5-Fc chimera (Fc fusion)
chain: EKPVYELQVQKSVTVQEGLCVLVPCSFSYPWRSWYSSPPLYVYWFRDGEIPYYAEVVATNNPDRRVKPETQGRFRLLGDVQKKNCSLSIGDARMEDTGSYFFRVERGRDVKYSYQQNKLNLEVTALIEKPDIHFLEPLESGRPTRLSCSLPGSCEAGPPLTFSWTGNALSPLDPETTRSSELTLTPRPEDHGTNLTCQMKRQGAQVTTERTVQLNVSYAPQTITIFRNGIALEILQNTSYLPVLEGQALRLLCDAPSNPPAHLSWFQGSPALNATPISNTGILELRRVRSAEEGGFTCRAQHPLGFLQIFLNLSVYSLPQLLGPSCSWEAEGLHCRCSFRARPAPSLCWRLEEKPLEGNSSQGSFKVNSSSAGPWANSSLILHGGLSSDLKVSCKAWNIYGSQSGSVLLLQGRSNLGTGVVPAAL
modifications: 125I (chloramine-T method) in the assays with radiolabeled hSiglec-5
[3]
  Kd: 3.5 nM
